According to article PMC5370111, “Biophysical characterization of the b-HLH-LZ of ΔMax, an alternatively spliced isoform of Max found in tumor cells: Towards the validation of a tumor suppressor role for the Max homodimers”:

How the values were obtained:
[1] = system: Max* in heterodimer;ΔMax* in heterodimer V99G;R100E;A101S;L102E;E103S (;), P61244+P61244-3; assay: fluorescence anisotropy; conditions: 37 C, 1:1 mixture, apparent 1/KBinding, internal fluorescein-dT (iFluorT) at position 4, FA: 15 nM dsDNA, 50 mM Tris, 50 mM KCl, pH 7.5, 37 C, EMSA: 250 nM DNA, 20 mM Tris-HCl, 75 mM KCl, 2.5 mM TCEP, 25 ug/mL BSA, 5% glycerol, pH 8.0, room temp …
[2] = system: ΔMax* in heterodimer;c-Myc* in heterodimer V99G;R100E;A101S;L102E;E103S (;), P61244-3+P01106; assay: fluorescence anisotropy; conditions: 37 C, 1:1 mixture, apparent 1/KBinding, internal fluorescein-dT (iFluorT) at position 4, FA: 15 nM dsDNA, 50 mM Tris, 50 mM KCl, pH 7.5, 37 C, EMSA: 250 nM DNA, 20 mM Tris-HCl, 75 mM KCl, 2.5 mM TCEP, 25 ug/mL BSA, 5% glycerol, pH 8.0, room temp …
[3] = system: ΔMax* (b-HLH-LZ of ΔMax splice isoform) V99G;R100E;A101S;L102E;E103S, P61244-3; assay: fluorescence anisotropy; conditions: 37 C; apparent 1/KBinding of dimer; 1/KDimer 220 ± 20 nM; internal fluorescein-dT (iFluorT) at position 4; FA: 15 nM dsDNA, 50 mM Tris, 50 mM KCl, pH 7.5, 37 C; EMSA: 250 nM DNA, 20 mM Tris-HCl, 75 mM KCl, 2.5 mM TCEP, 25 ug/mL BSA, 5% glycerol, pH 8.0, room temp …
[4] = biological target: T1, Max* (b-HLH-LZ of WT Max) (UniProt P61244 22-103); assay: fluorescence anisotropy; 37 C; apparent 1/KBinding of dimer; 1/KDimer 55 ± 7 nM; FA: 15 nM dsDNA, 50 mM Tris, 50 mM KCl, pH 7.5, 37 C; EMSA: 250 nM DNA, 20 mM Tris-HCl, 75 mM KCl, 2.5 mM TCEP, 25 ug/mL BSA, 5% glycerol, pH 8.0, room temp; CD: 25 mM KH2PO4, 25 mM Na2HPO4, 50 mM KCl, 1 mM TCEP, pH 6.8; conditions: protein: recombinant; tags: C-terminal GSGC stated for the deltaMax* construct only; not restated for Max*; chain copies: 2; label: fluorescein; blunt, self-complementary palindrome
[5] = biological target: T2, c-Myc* (b-HLH-LZ of c-Myc) (UniProt P01106 368-451); assay: fluorescence anisotropy; 37 C; apparent 1/KBinding of dimer; 1/KDimer 8.5 ± 3 nM; FA: 15 nM dsDNA, 50 mM Tris, 50 mM KCl, pH 7.5, 37 C; EMSA: 250 nM DNA, 20 mM Tris-HCl, 75 mM KCl, 2.5 mM TCEP, 25 ug/mL BSA, 5% glycerol, pH 8.0, room temp; CD: 25 mM KH2PO4, 25 mM Na2HPO4, 50 mM KCl, 1 mM TCEP, pH 6.8; conditions: protein: recombinant; chain copies: 2; label: fluorescein; blunt, self-complementary palindrome
[6] = biological target: T1, Max* (b-HLH-LZ of WT Max); assay: fluorescence anisotropy; 37 C; apparent 1/KBinding of dimer; 1/KDimer 8.6 ± 1.2 nM; FA: 15 nM dsDNA, 50 mM Tris, 50 mM KCl, pH 7.5, 37 C; EMSA: 250 nM DNA, 20 mM Tris-HCl, 75 mM KCl, 2.5 mM TCEP, 25 ug/mL BSA, 5% glycerol, pH 8.0, room temp; CD: 25 mM KH2PO4, 25 mM Na2HPO4, 50 mM KCl, 1 mM TCEP, pH 6.8; conditions: protein: recombinant; tags: C-terminal GSGC stated for the deltaMax* construct only; not restated for Max*; chain copies: 2; label: fluorescein; blunt, self-complementary palindrome
[7] = biological target: T2, c-Myc* (b-HLH-LZ of c-Myc); assay: fluorescence anisotropy; 37 C; apparent 1/KBinding of dimer; 1/KDimer 0.48 ± 0.5 nM; FA: 15 nM dsDNA, 50 mM Tris, 50 mM KCl, pH 7.5, 37 C; EMSA: 250 nM DNA, 20 mM Tris-HCl, 75 mM KCl, 2.5 mM TCEP, 25 ug/mL BSA, 5% glycerol, pH 8.0, room temp; CD: 25 mM KH2PO4, 25 mM Na2HPO4, 50 mM KCl, 1 mM TCEP, pH 6.8; conditions: protein: recombinant; chain copies: 2; label: fluorescein; blunt, self-complementary palindrome
[8] = biological target: Max* in heterodimer;c-Myc* in heterodimer (;, UniProt P61244;P01106 22-103;368-451, |); assay: EMSA; room temperature; Max*/Max* complex also seen at 2:1 excess of c-Myc*; FA: 15 nM dsDNA, 50 mM Tris, 50 mM KCl, pH 7.5, 37 C; EMSA: 250 nM DNA, 20 mM Tris-HCl, 75 mM KCl, 2.5 mM TCEP, 25 ug/mL BSA, 5% glycerol, pH 8.0, room temp; CD: 25 mM KH2PO4, 25 mM Na2HPO4, 50 mM KCl, 1 mM TCEP, pH 6.8; conditions: protein: recombinant;recombinant; tags: ;; copies: 1;1; label: fluorescein; blunt, self-complementary palindrome
[9] = biological target: T1, Max* (b-HLH-LZ of WT Max); assay: CD thermal denaturation; complex T° 43.7 C; less stable than E-box; FA: 15 nM dsDNA, 50 mM Tris, 50 mM KCl, pH 7.5, 37 C; EMSA: 250 nM DNA, 20 mM Tris-HCl, 75 mM KCl, 2.5 mM TCEP, 25 ug/mL BSA, 5% glycerol, pH 8.0, room temp; CD: 25 mM KH2PO4, 25 mM Na2HPO4, 50 mM KCl, 1 mM TCEP, pH 6.8; conditions: protein: recombinant; tags: C-terminal GSGC stated for the deltaMax* construct only; not restated for Max*; chain copies: 2; blunt, self-complementary palindrome
[10] = biological target: T2, c-Myc* (b-HLH-LZ of c-Myc); assay: CD thermal denaturation; stable complex; FA: 15 nM dsDNA, 50 mM Tris, 50 mM KCl, pH 7.5, 37 C; EMSA: 250 nM DNA, 20 mM Tris-HCl, 75 mM KCl, 2.5 mM TCEP, 25 ug/mL BSA, 5% glycerol, pH 8.0, room temp; CD: 25 mM KH2PO4, 25 mM Na2HPO4, 50 mM KCl, 1 mM TCEP, pH 6.8; conditions: protein: recombinant; chain copies: 2; blunt, self-complementary palindrome
[11] = biological target: T1, Max* (b-HLH-LZ of WT Max); assay: CD thermal denaturation; complex T° 56.1 C; FA: 15 nM dsDNA, 50 mM Tris, 50 mM KCl, pH 7.5, 37 C; EMSA: 250 nM DNA, 20 mM Tris-HCl, 75 mM KCl, 2.5 mM TCEP, 25 ug/mL BSA, 5% glycerol, pH 8.0, room temp; CD: 25 mM KH2PO4, 25 mM Na2HPO4, 50 mM KCl, 1 mM TCEP, pH 6.8; conditions: protein: recombinant; tags: C-terminal GSGC stated for the deltaMax* construct only; not restated for Max*; chain copies: 2; blunt, self-complementary palindrome

T2 sequence (P01106 368-451): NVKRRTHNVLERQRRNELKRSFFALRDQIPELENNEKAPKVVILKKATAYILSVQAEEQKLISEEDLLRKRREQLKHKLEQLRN
T1 sequence (P61244 22-103): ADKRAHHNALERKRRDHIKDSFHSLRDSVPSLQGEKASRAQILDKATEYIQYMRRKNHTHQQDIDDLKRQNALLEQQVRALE
Sequence of Max* in heterodimer;ΔMax* in heterodimer V99G;R100E;A101S;L102E;E103S (;), P61244+P61244-3 (P61244 whole entry V99G/R100E/A101S/L102E/E103S, looked up, one chain of several): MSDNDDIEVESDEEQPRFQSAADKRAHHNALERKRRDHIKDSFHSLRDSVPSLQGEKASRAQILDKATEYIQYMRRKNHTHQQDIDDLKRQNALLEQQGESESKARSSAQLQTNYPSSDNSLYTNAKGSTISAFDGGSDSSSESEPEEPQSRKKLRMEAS
Sequence of ΔMax* in heterodimer;c-Myc* in heterodimer V99G;R100E;A101S;L102E;E103S (;), P61244-3+P01106 (P01106 whole entry, looked up, chain 1 of 2, canonical isoform): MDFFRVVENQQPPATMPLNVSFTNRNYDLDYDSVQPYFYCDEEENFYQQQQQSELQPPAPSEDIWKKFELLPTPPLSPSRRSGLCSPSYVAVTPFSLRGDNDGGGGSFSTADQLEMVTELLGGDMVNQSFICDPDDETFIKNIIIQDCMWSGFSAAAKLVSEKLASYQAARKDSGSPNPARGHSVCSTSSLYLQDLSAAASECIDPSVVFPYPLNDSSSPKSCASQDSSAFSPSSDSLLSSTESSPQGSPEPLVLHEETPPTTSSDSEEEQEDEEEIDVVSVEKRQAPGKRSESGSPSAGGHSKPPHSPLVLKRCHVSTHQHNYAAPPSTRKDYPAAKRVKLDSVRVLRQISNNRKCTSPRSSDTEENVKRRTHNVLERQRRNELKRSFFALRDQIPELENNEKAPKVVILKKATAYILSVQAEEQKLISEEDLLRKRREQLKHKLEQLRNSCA
Sequence of ΔMax* in heterodimer;c-Myc* in heterodimer V99G;R100E;A101S;L102E;E103S (;), P61244-3+P01106 (P61244 whole entry, looked up, stated change not applied, chain 2 of 2, canonical isoform): as the sequence (P61244 whole entry V99G/R100E/A101S/L102E/E103S, looked up, one chain of several) above, with G99V, E100R, S101A, E102L, S103E counted along it
Sequence of Max* in heterodimer;c-Myc* in heterodimer (P61244 22-103, chain 1 of 2): as the sequence (P61244 22-103) above
Sequence of Max* in heterodimer;c-Myc* in heterodimer (P01106 368-451, chain 2 of 2): as the sequence (P01106 368-451) above
Sequence of ΔMax* (b-HLH-LZ of ΔMax splice isoform) V99G;R100E;A101S;L102E;E103S, P61244-3 (P61244 whole entry V99G/R100E/A101S/L102E/E103S, looked up, canonical isoform): as the sequence (P61244 whole entry V99G/R100E/A101S/L102E/E103S, looked up, one chain of several) above

GAGTAGGGATCCCTACTC (double strand) [Non-specific DNA, fluorescein-labeled]
Kd ([1]; 1/KDimer 460 ± 34 nM): 40 nM
Kd ([2]; 1/KDimer 38 ± 5 nM): 11 nM

GAGTAGCACGTGCTACTC (double strand) [E-box, fluorescein-labeled]
Kd [3]: 80 nM
Kd ([1]; 1/KDimer 120 ± 10 nM): 4 nM
Kd ([2]; 1/KDimer 17 ± 2 nM): 10 nM

B1: Non-specific DNA, fluorescein-labeled (dsDNA)
DNA 1: GAGTAGGGATCCCTACTC
DNA 2: GAGTAGGGATCCCTACTC
modifications: internal fluorescein-dT (iFluorT) at position 4
Kd [4]: 23 nM
Kd [5]: 280 nM

B2: E-box, fluorescein-labeled (dsDNA)
DNA 1: GAGTAGCACGTGCTACTC
DNA 2: GAGTAGCACGTGCTACTC
modifications: internal fluorescein-dT (iFluorT) at position 4
Kd [6]: 4.8 nM
Kd [7]: 70 nM
binding result [8]: binds

B3: Non-specific DNA, unlabeled (CD) (dsDNA)
DNA 1: GAGTAGGGATCCCTACTC
DNA 2: GAGTAGGGATCCCTACTC
binding result [9]: binds

B4: E-box, unlabeled (CD) (dsDNA)
DNA 1: GAGTAGCACGTGCTACTC
DNA 2: GAGTAGCACGTGCTACTC
binding result [10]: binds
binding result [11]: binds
